Data from patent US20070154472A1 (published 2007).
[ ]: non-standard residue; d: D form. The star is where a group is joined. Biotin = O=C1N[C@H]2[C@H](CS[C@H]2CCCCC(=O)*)N1; pY = N[C@@H](Cc1ccc(OP(=O)(O)O)cc1)C(=O)O; βAla = NCCC(=O)O

What was measured:
[1] = biological target: T1, BTK peptide (non-phosphorylated); assay: dot blot on P81 phosphocellulose filters
T1 construct: also called Tufts peptide
T1 peptide: {Biotin-βAla}-AKKVVALYDYMPMN-OH
Source text: (§1) PSG2 is Specific for Sulfotyrosine as Compared to Phosphotyrosine. To compare binding to various peptides, a GPG-290 polypeptide (GPG) or a BTK peptide (BTK) (Tufts peptide) (biotin-βAla-[…]-[OH]) (SEQ ID NO:339), one microliter of 1:3 dilutions of compound was spotted onto P81 phosphocellulose filters (Upstate Cell Signaling #20-134). GPG-290 is a dimeric molecule consisting of the N-terminal 290 amino acids of GPIbα fused to a mutated Fc domain of human IgG1. It contains 3 sulfated tyrosine residues at positions 276, 278, and 279. The BTK peptide is biotin-βAla-[…]-[OH] (SEQ ID NO:339). Phospho-BTK contains 2 phosphorylated tyrosine residues. The starting dilution for GPG-290 was 250 ng/μl and for the BTK peptide the starting dilution was 3 μg/μl. Western Blot analysis was performed as follows: filters were blocked for 1 hour in blocking buffer (TBS+0.1% Tween-20 (TBS/T) and 5% nonfat dry milk). Filters were washed in TBS/T and incubated overnight in primary antibody diluted in TBS/T+0.5% BSA. Washed filters were incubated for 1 hour with secondary antibody diluted in blocking buffer (HRP-mouse anti-human IgG4 to detect PSG-2 and HRP-goat anti-mouse IgG+A+M to detect anti-phospho-tyrosine antibody). HRP signal was detected with the SuperSignal Chemiluminescent Substrate (Pierce) and the filters were exposed to X-ray film.

Phospho-BTK peptide = biological target: T2, Phospho-BTK peptide (SMILES …); assay: dot blot on P81 phosphocellulose filters
T2 peptide: Biotin-[βAla]KKVVAL[pY]D[pY]MPMN-OH
Source text: as §1

[2] = biological target: T3, unglycosylated and unsulfated synthetic peptide 19.ek (human, biotinylated; no sulfate, no glycan); assay: SPR (BIAcore), biotinylated peptide on streptavidin chip
T3 construct: also called synthetic peptide lacking sulfated tyrosine
Protocol: Surface plasmon resonance binding analysis. A BIAcore 2000 instrument (BIAcore AB, Uppsala, Sweden) was used to analyze the interactions between the identified antibodies and biotinylated PSGL-1 19.ek.Fc or derived peptides. Binding experiments were performed at 25° C. using streptavidin-coated sensor chips (BIAcore) and HBS-P buffer (20 mM HEPES [pH 7.4], 150 mM NaCl and 0.005% polysorbate 20 v/v) adjusted to 1 mM for both CaCl₂ and MgCl₂. The streptavidin on the sensor surfaces were conditioned with three one-minute injections of a solution containing 1 M NaCl and 25 mM NaOH. The chips were regenerated with 5 μL of 0.1% TFA and equilibrated with running buffer. […] Binding kinetics were analyzed using BIAevaluation software (V2.1; Pharmacia Biosensor, Uppsala, Sweden). The response representing the mass of bound monoclonal antibodies was measured in resonance units (RU). […] Binding kinetics of human anti-PSGL-1 monoclonal antibodies to the immobilized PSGL-1 19.ek.Fc was determined under partial mass transport limitations by triplicate injections at a concentration range (0-100 nM) onto the immobilized biotinlylated PSGL-1 19.ek.Fc peptide at a flow rate of 30 μL/min, following injection for two minutes. Dissociation was monitored for ten minutes at the same flow rate. […]

[3] = biological target: T4, fully sulfated and glycosylated human PSGL-1 19.ek.Fc fusion protein (human, sulfated tyrosines (y in QATEyEyLDyDFL, corresponding to Tyr46, Tyr48 and Tyr51 of mature human PSGL-1); O-linked glycan; biotinylated in the assays); assay: SPR (BIAcore 2000), biotinylated PSGL-1 19.ek.Fc on streptavidin chip, antibody 0-100 nM
T4 construct: also called PSGL-19.ek.Fc; PSGL-19.ed.Fc; not shown: human IgG1 Fc as described in Somers et al., Cell 103:467-479 (2000)
T4 chain: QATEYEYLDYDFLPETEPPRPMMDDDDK
Protocol: Surface plasmon resonance binding analysis. A BIAcore 2000 instrument (BIAcore AB, Uppsala, Sweden) was used to analyze the interactions between the identified antibodies and biotinylated PSGL-1 19.ek.Fc or derived peptides. Binding experiments were performed at 25° C. using streptavidin-coated sensor chips (BIAcore) and HBS-P buffer (20 mM HEPES [pH 7.4], 150 mM NaCl and 0.005% polysorbate 20 v/v) adjusted to 1 mM for both CaCl₂ and MgCl₂. The streptavidin on the sensor surfaces were conditioned with three one-minute injections of a solution containing 1 M NaCl and 25 mM NaOH. The chips were regenerated with 5 μL of 0.1% TFA and equilibrated with running buffer. […] Binding kinetics were analyzed using BIAevaluation software (V2.1; Pharmacia Biosensor, Uppsala, Sweden). The response representing the mass of bound monoclonal antibodies was measured in resonance units (RU). […] Binding kinetics of human anti-PSGL-1 monoclonal antibodies to the immobilized PSGL-1 19.ek.Fc was determined under partial mass transport limitations by triplicate injections at a concentration range (0-100 nM) onto the immobilized biotinlylated PSGL-1 19.ek.Fc peptide at a flow rate of 30 μL/min, following injection for two minutes. Dissociation was monitored for ten minutes at the same flow rate.

Row | Binder | binding result [1] | binding result (Phospho-BTK peptide) | binding result [2] | Ka [3]
1 | PSG2 full-length bivalent antibody (human IgG4, lambda) (antibody, V domains shown, also called P5G2; human monoclonal antibody PSG2) VH: not shown VL: QAVLTQPSSLSASPGASASLTCTLRSGIDVGPHRIYWFQQKPGSTPQYLLRYKSDSDTQQGSGVPSRFSGSKDASANAGILLISGLQSEDEADYYCMIWHSSAWVFGGGTKLTVLG | no binding | no binding | no binding (tested: 100 nM) | ~3.2e+10 M⁻¹
2 | PSG1 full-length bivalent antibody (human IgG4, lambda) (antibody, V domains shown, also called human monoclonal antibody PSG1) VH: QVQLQESGAEVKKPGASVKVSCKSSGYTFTAYYMHWLRQAPGQGLEWMGWINPNSGGTNYAQKFQGRVTLTRDTSISTAYMELNSLTSDDTAMYYCARGGPRVSSRPGIGYSDSWGKGTLVTVSS VL: QTVVLQEPSLTVSPGGTVTLTCASRIGAVTSGHYANWFQQKPGQAPRALIYRTNNKQSWTPARFSGSLLGDRAALTLSGAQPEDEADYYCLLYYGGSWVFGGGTKLTVLG |  |  | no binding (tested: 100 nM) | ~7.5e+09 M⁻¹
